The source of these data is patent US20260015399A1 (Boehringer Ingelheim, published 2026).

For the test, the target named is T1, human NPY2 receptor (human, UniProt P49146 1-381).
T1 construct: whole, on cells; also called hNPY2-R; hNPY2R
T1 sequence (looked up): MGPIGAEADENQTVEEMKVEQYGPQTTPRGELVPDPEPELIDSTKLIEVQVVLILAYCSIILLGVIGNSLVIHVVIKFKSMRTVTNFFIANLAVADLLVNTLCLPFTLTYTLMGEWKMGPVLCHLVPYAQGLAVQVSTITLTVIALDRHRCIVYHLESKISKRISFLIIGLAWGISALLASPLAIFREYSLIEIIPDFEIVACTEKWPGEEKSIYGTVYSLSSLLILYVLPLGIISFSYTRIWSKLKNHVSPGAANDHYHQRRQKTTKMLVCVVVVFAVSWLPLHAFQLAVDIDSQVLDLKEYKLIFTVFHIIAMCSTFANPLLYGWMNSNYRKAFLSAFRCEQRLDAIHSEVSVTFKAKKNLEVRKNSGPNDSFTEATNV
The test is described as follows: RLB: displacement of 125I-PYY(1-36) from hNPY2R membranes. (In general: Loss of bound radioactivity is the signal in a displacement assay; it reports binding, not function.)

*1 amine or outer side, *2 acyl side, *3 side chain or, on linkers, in order; H or OH if unused. Side-chain parts run from the residue outwards. The star is where a group is joined. C18 diacid = O=C(O)CCCCCCCCCCCCCCCCC(=O)*; γGlu = O=C(O)[C@H](CCC(=O)[*:2])N[*:1]; Isovaleryl = CC(C)CC(=O)*; Ahx = NCCCCCC(=O)O

B1: Compound 157 (peptide)
peptide: Isovaleryl-APAK([Ahx-γGlu-C18 diacid])PEEAASPEELQRYYVALRHYYNWLTRQRY-NH2
SMILES: CC(C)CC(=O)N[C@@H](C)C(=O)N1CCC[C@H]1C(=O)N[C@@H](C)C(=O)N[C@@H](CCCCNC(=O)CCCCCNC(=O)CC[C@H](NC(=O)CCCCCCCCCCCCCCCCC(=O)O)C(=O)O)C(=O)N1CCC[C@H]1C(=O)N[C@@H](CCC(=O)O)C(=O)N[C@@H](CCC(=O)O)C(=O)N[C@@H](C)C(=O)N[C@@H](C)C(=O)N[C@@H](CO)C(=O)N1CCC[C@H]1C(=O)N[C@@H](CCC(=O)O)C(=O)N[C@@H](CCC(=O)O)C(=O)N[C@@H](CC(C)C)C(=O)N[C@@H](CCC(N)=O)C(=O)N[C@@H](CCCNC(=N)N)C(=O)N[C@@H](Cc1ccc(O)cc1)C(=O)N[C@@H](Cc1ccc(O)cc1)C(=O)N[C@H](C(=O)N[C@@H](C)C(=O)N[C@@H](CC(C)C)C(=O)N[C@@H](CCCNC(=N)N)C(=O)N[C@@H](Cc1c[nH]cn1)C(=O)N[C@@H](Cc1ccc(O)cc1)C(=O)N[C@@H](Cc1ccc(O)cc1)C(=O)N[C@@H](CC(N)=O)C(=O)N[C@@H](Cc1c[nH]c2ccccc12)C(=O)N[C@@H](CC(C)C)C(=O)N[C@H](C(=O)N[C@@H](CCCNC(=N)N)C(=O)N[C@@H](CCC(N)=O)C(=O)N[C@@H](CCCNC(=N)N)C(=O)N[C@@H](Cc1ccc(O)cc1)C(N)=O)[C@@H](C)O)C(C)C
One may read the Ki as a dissociation constant, usually derived from enzyme kinetics or from competition with a known ligand. In turn, B1 yielded a Ki of 1.68 nM. That is a single-digit nanomolar value.

B2: Compound 159 (peptide)
peptide: Isovaleryl-APEK([Ahx-γGlu-C18 diacid])PEADAEPEELQRYYISLRHYYNWLTRQRY-NH2
SMILES: CC[C@H](C)[C@H](NC(=O)[C@H](Cc1ccc(O)cc1)NC(=O)[C@H](Cc1ccc(O)cc1)NC(=O)[C@H](CCCNC(=N)N)NC(=O)[C@H](CCC(N)=O)NC(=O)[C@H](CC(C)C)NC(=O)[C@H](CCC(=O)O)NC(=O)[C@H](CCC(=O)O)NC(=O)[C@@H]1CCCN1C(=O)[C@H](CCC(=O)O)NC(=O)[C@H](C)NC(=O)[C@H](CC(=O)O)NC(=O)[C@H](C)NC(=O)[C@H](CCC(=O)O)NC(=O)[C@@H]1CCCN1C(=O)[C@H](CCCCNC(=O)CCCCCNC(=O)CC[C@H](NC(=O)CCCCCCCCCCCCCCCCC(=O)O)C(=O)O)NC(=O)[C@H](CCC(=O)O)NC(=O)[C@@H]1CCCN1C(=O)[C@H](C)NC(=O)CC(C)C)C(=O)N[C@@H](CO)C(=O)N[C@@H](CC(C)C)C(=O)N[C@@H](CCCNC(=N)N)C(=O)N[C@@H](Cc1c[nH]cn1)C(=O)N[C@@H](Cc1ccc(O)cc1)C(=O)N[C@@H](Cc1ccc(O)cc1)C(=O)N[C@@H](CC(N)=O)C(=O)N[C@@H](Cc1c[nH]c2ccccc12)C(=O)N[C@@H](CC(C)C)C(=O)N[C@H](C(=O)N[C@@H](CCCNC(=N)N)C(=O)N[C@@H](CCC(N)=O)C(=O)N[C@@H](CCCNC(=N)N)C(=O)N[C@@H](Cc1ccc(O)cc1)C(N)=O)[C@@H](C)O
B2 registered a Ki of 2.75 nM.

B3: Compound 164 (peptide)
peptide: Isovaleryl-APEK([Ahx-γGlu-C18 diacid])PEEDATPEEIQRYYQSLRHYYNWLTRQRY-NH2
SMILES: CC[C@H](C)[C@H](NC(=O)[C@H](CCC(=O)O)NC(=O)[C@H](CCC(=O)O)NC(=O)[C@@H]1CCCN1C(=O)[C@@H](NC(=O)[C@H](C)NC(=O)[C@H](CC(=O)O)NC(=O)[C@H](CCC(=O)O)NC(=O)[C@H](CCC(=O)O)NC(=O)[C@@H]1CCCN1C(=O)[C@H](CCCCNC(=O)CCCCCNC(=O)CC[C@H](NC(=O)CCCCCCCCCCCCCCCCC(=O)O)C(=O)O)NC(=O)[C@H](CCC(=O)O)NC(=O)[C@@H]1CCCN1C(=O)[C@H](C)NC(=O)CC(C)C)[C@@H](C)O)C(=O)N[C@@H](CCC(N)=O)C(=O)N[C@@H](CCCNC(=N)N)C(=O)N[C@@H](Cc1ccc(O)cc1)C(=O)N[C@@H](Cc1ccc(O)cc1)C(=O)N[C@@H](CCC(N)=O)C(=O)N[C@@H](CO)C(=O)N[C@@H](CC(C)C)C(=O)N[C@@H](CCCNC(=N)N)C(=O)N[C@@H](Cc1c[nH]cn1)C(=O)N[C@@H](Cc1ccc(O)cc1)C(=O)N[C@@H](Cc1ccc(O)cc1)C(=O)N[C@@H](CC(N)=O)C(=O)N[C@@H](Cc1c[nH]c2ccccc12)C(=O)N[C@@H](CC(C)C)C(=O)N[C@H](C(=O)N[C@@H](CCCNC(=N)N)C(=O)N[C@@H](CCC(N)=O)C(=O)N[C@@H](CCCNC(=N)N)C(=O)N[C@@H](Cc1ccc(O)cc1)C(N)=O)[C@@H](C)O
As to B3, the Ki was 2.8 nM. The Ki values of the last two molecules are within 1.5-fold of each other.

B4: Compound 158 (peptide)
peptide: Isovaleryl-APEK([Ahx-γGlu-C18 diacid])PPEAASPEEIQRYYVALRHYYNWLTRQRY-NH2
SMILES: CC[C@H](C)[C@H](NC(=O)[C@H](CCC(=O)O)NC(=O)[C@H](CCC(=O)O)NC(=O)[C@@H]1CCCN1C(=O)[C@H](CO)NC(=O)[C@H](C)NC(=O)[C@H](C)NC(=O)[C@H](CCC(=O)O)NC(=O)[C@@H]1CCCN1C(=O)[C@@H]1CCCN1C(=O)[C@H](CCCCNC(=O)CCCCCNC(=O)CC[C@H](NC(=O)CCCCCCCCCCCCCCCCC(=O)O)C(=O)O)NC(=O)[C@H](CCC(=O)O)NC(=O)[C@@H]1CCCN1C(=O)[C@H](C)NC(=O)CC(C)C)C(=O)N[C@@H](CCC(N)=O)C(=O)N[C@@H](CCCNC(=N)N)C(=O)N[C@@H](Cc1ccc(O)cc1)C(=O)N[C@@H](Cc1ccc(O)cc1)C(=O)N[C@H](C(=O)N[C@@H](C)C(=O)N[C@@H](CC(C)C)C(=O)N[C@@H](CCCNC(=N)N)C(=O)N[C@@H](Cc1c[nH]cn1)C(=O)N[C@@H](Cc1ccc(O)cc1)C(=O)N[C@@H](Cc1ccc(O)cc1)C(=O)N[C@@H](CC(N)=O)C(=O)N[C@@H](Cc1c[nH]c2ccccc12)C(=O)N[C@@H](CC(C)C)C(=O)N[C@H](C(=O)N[C@@H](CCCNC(=N)N)C(=O)N[C@@H](CCC(N)=O)C(=O)N[C@@H](CCCNC(=N)N)C(=O)N[C@@H](Cc1ccc(O)cc1)C(N)=O)[C@@H](C)O)C(C)C
The molecule B4 showed a Ki of 0.58 nM. Compared with the last molecule, the Ki is about 4.8-fold lower.

B5: Compound 161 (peptide)
peptide: Isovaleryl-APAK([Ahx-γGlu-C18 diacid])PEEAAEPEELQRYYVALRHYYNWLTRQRY-NH2
SMILES: CC(C)CC(=O)N[C@@H](C)C(=O)N1CCC[C@H]1C(=O)N[C@@H](C)C(=O)N[C@@H](CCCCNC(=O)CCCCCNC(=O)CC[C@H](NC(=O)CCCCCCCCCCCCCCCCC(=O)O)C(=O)O)C(=O)N1CCC[C@H]1C(=O)N[C@@H](CCC(=O)O)C(=O)N[C@@H](CCC(=O)O)C(=O)N[C@@H](C)C(=O)N[C@@H](C)C(=O)N[C@@H](CCC(=O)O)C(=O)N1CCC[C@H]1C(=O)N[C@@H](CCC(=O)O)C(=O)N[C@@H](CCC(=O)O)C(=O)N[C@@H](CC(C)C)C(=O)N[C@@H](CCC(N)=O)C(=O)N[C@@H](CCCNC(=N)N)C(=O)N[C@@H](Cc1ccc(O)cc1)C(=O)N[C@@H](Cc1ccc(O)cc1)C(=O)N[C@H](C(=O)N[C@@H](C)C(=O)N[C@@H](CC(C)C)C(=O)N[C@@H](CCCNC(=N)N)C(=O)N[C@@H](Cc1c[nH]cn1)C(=O)N[C@@H](Cc1ccc(O)cc1)C(=O)N[C@@H](Cc1ccc(O)cc1)C(=O)N[C@@H](CC(N)=O)C(=O)N[C@@H](Cc1c[nH]c2ccccc12)C(=O)N[C@@H](CC(C)C)C(=O)N[C@H](C(=O)N[C@@H](CCCNC(=N)N)C(=O)N[C@@H](CCC(N)=O)C(=O)N[C@@H](CCCNC(=N)N)C(=O)N[C@@H](Cc1ccc(O)cc1)C(N)=O)[C@@H](C)O)C(C)C
The molecule B5 displayed a Ki of 4 nM.

B6: Compound 162 (peptide)
peptide: Isovaleryl-APEK([Ahx-γGlu-C18 diacid])PEEDATPEEEQRYYVSLRHYYNWLTRQRY-NH2
SMILES: CC(C)CC(=O)N[C@@H](C)C(=O)N1CCC[C@H]1C(=O)N[C@@H](CCC(=O)O)C(=O)N[C@@H](CCCCNC(=O)CCCCCNC(=O)CC[C@H](NC(=O)CCCCCCCCCCCCCCCCC(=O)O)C(=O)O)C(=O)N1CCC[C@H]1C(=O)N[C@@H](CCC(=O)O)C(=O)N[C@@H](CCC(=O)O)C(=O)N[C@@H](CC(=O)O)C(=O)N[C@@H](C)C(=O)N[C@H](C(=O)N1CCC[C@H]1C(=O)N[C@@H](CCC(=O)O)C(=O)N[C@@H](CCC(=O)O)C(=O)N[C@@H](CCC(=O)O)C(=O)N[C@@H](CCC(N)=O)C(=O)N[C@@H](CCCNC(=N)N)C(=O)N[C@@H](Cc1ccc(O)cc1)C(=O)N[C@@H](Cc1ccc(O)cc1)C(=O)N[C@H](C(=O)N[C@@H](CO)C(=O)N[C@@H](CC(C)C)C(=O)N[C@@H](CCCNC(=N)N)C(=O)N[C@@H](Cc1c[nH]cn1)C(=O)N[C@@H](Cc1ccc(O)cc1)C(=O)N[C@@H](Cc1ccc(O)cc1)C(=O)N[C@@H](CC(N)=O)C(=O)N[C@@H](Cc1c[nH]c2ccccc12)C(=O)N[C@@H](CC(C)C)C(=O)N[C@H](C(=O)N[C@@H](CCCNC(=N)N)C(=O)N[C@@H](CCC(N)=O)C(=O)N[C@@H](CCCNC(=N)N)C(=O)N[C@@H](Cc1ccc(O)cc1)C(N)=O)[C@@H](C)O)C(C)C)[C@@H](C)O
With B6, the affinity, expressed as Ki, was 14.9 nM. Against the preceding molecule, the Ki is about 3.7-fold higher.
